Data on 38 molecules can be found in patent US20140179896A1 (published 2014).

The chains are these.
B1: B5 (designed binder)
chain: EVVAATPTSLLISWRHPHFPTRYYRITYGETGGNSPVQEFTVPLQPPTATISGLKPGVDYTITGYAVTQERNGRELMTPISINYRT
notes: 10Fn3 clone, Del 1-8
B2: D1 (designed binder)
chain: B1 chain with Q69V, E75M
notes: 10Fn3 clone, Del 1-8
B3: D11 (designed binder)
chain: B1 chain with Q69V, R74H, E75K, M77F
notes: 10Fn3 clone, Del 1-8
B4: B12 (designed binder)
chain: B1 chain with Q69V, M77R
notes: 10Fn3 clone, Del 1-8
B5: E22 (designed binder)
chain: B1 chain with Q69L, E70G, G73D, M77L
notes: 10Fn3 clone, Del 1-8
B6: C6 (designed binder)
chain: B1 chain with Q69L, E75V
notes: 10Fn3 clone, Del 1-8
B7: D3 (designed binder)
chain: B1 chain with Q69V, E75A
notes: 10Fn3 clone, Del 1-8
B8: C12 (designed binder)
chain: B1 chain with Q69V, E75V, M77S, T78V
notes: 10Fn3 clone, Del 1-8
B9: D4 (designed binder)
chain: B1 chain with Q69V, E75T, M77F
notes: 10Fn3 clone, Del 1-8
B10: C3 (designed binder)
chain: B1 chain with Q69L, T78I
notes: 10Fn3 clone, Del 1-8
B11: E16 (designed binder)
chain: B1 chain with Q69V, R71E, E75Q
notes: 10Fn3 clone, Del 1-8
B12: D9 (designed binder)
chain: B1 chain with Q69E, E75V, M77F
notes: 10Fn3 clone, Del 1-8
B13: C8 (designed binder)
chain: B1 chain with Q69L, E75V, M77I
notes: 10Fn3 clone, Del 1-8
B14: B6 (designed binder)
chain: B1 chain with Q69L, R74K
notes: 10Fn3 clone, Del 1-8
B15: D5 (designed binder)
chain: B1 chain with Q69V, E75T, T78M
notes: 10Fn3 clone, Del 1-8
B16: E10 (designed binder)
chain: B1 chain with Q69E, E70G, M77F, T78I
B17: E17 (designed binder)
chain: B1 chain with Q69V, R71E, E75V, M77N
notes: 10Fn3 clone, Del 1-8
B18: C1 (designed binder)
chain: B1 chain with M77R
notes: 10Fn3 clone, Del 1-8
B19: D2 (designed binder)
chain: B1 chain with Q69V, E75N
notes: 10Fn3 clone, Del 1-8
B20: C2 (designed binder)
chain: B1 chain with Q69V, M77L, T78W
notes: 10Fn3 clone, Del 1-8
B21: C9 (designed binder)
chain: B1 chain with Q69V, R74L, E75V
notes: 10Fn3 clone, Del 1-8
B22: E24 (designed binder)
chain: B1 chain with Q69V, G73D, E75V, M77F
notes: 10Fn3 clone, Del 1-8
B23: D7 (designed binder)
chain: B1 chain with Q69V, R74K, E75V
notes: 10Fn3 clone, Del 1-8
B24: E8 (designed binder)
chain: B1 chain with Q69E, R71W, E75V
notes: 10Fn3 clone, Del 1-8
B25: D6 (designed binder)
chain: B1 chain with Q69V, R74K, E75T
notes: 10Fn3 clone, Del 1-8
B26: E15 (designed binder)
chain: B1 chain with Q69L, R71P, E75Y, T78V
notes: 10Fn3 clone, Del 1-8
B27: E12 (designed binder)
chain: B1 chain with Q69F, E70A, N72D, R74H, L76I, M77L
notes: 10Fn3 clone, Del 1-8
B28: C10 (designed binder)
chain: B1 chain with Q69V, E75V, M77I, T78I
notes: 10Fn3 clone, Del 1-8
B29: B7, B8 (designed binder)
chain: B1 chain with Q69V, M77L
notes: 10Fn3 clone, Del 1-8
B30: C11 (designed binder)
chain: B1 chain with Q69V, E75V, M77I, T78V
notes: 10Fn3 clone, Del 1-8
B31: C7 (designed binder)
chain: B1 chain with Q69H, E75V
notes: 10Fn3 clone, Del 1-8
B32: E20 (designed binder)
chain: B1 chain with Q69V, R74Q, E75V, M77Y
notes: 10Fn3 clone, Del 1-8
B33: E13 (designed binder)
chain: B1 chain with Q69L, R71Q
notes: 10Fn3 clone, Del 1-8
B34: B10 (designed binder)
chain: B1 chain with Q69L, M77N
notes: 10Fn3 clone, Del 1-8
B35: E27 (designed binder)
chain: B1 chain with Q69V, R74H, E75T
notes: 10Fn3 clone, Del 1-8
B36: E21 (designed binder)
chain: B1 chain with Q69W, E70G, R71Y, N72K, G73D, R74H, M77L, T78I
notes: 10Fn3 clone, Del 1-8
B37: D12 (designed binder)
chain: B1 chain with Q69V, E75K
notes: 10Fn3 clone, Del 1-8
B38: E14 (designed binder)
chain: B1 chain with Q69L, R74Q, E75V, M77F
notes: 10Fn3 clone, Del 1-8

Changes are numbered by the printed parent chain.

For one assay, the target named is T1, human vascular endothelial growth factor receptor-2 Fc chimera (KDR-Fc) (human, UniProt P35968 20-764).
T1 construct: range 1-764; also called human VEGFR-2; not shown: human IgG1 Fc
T1 sequence (P35968 20-764 limits assumed, change not shown, form in doubt): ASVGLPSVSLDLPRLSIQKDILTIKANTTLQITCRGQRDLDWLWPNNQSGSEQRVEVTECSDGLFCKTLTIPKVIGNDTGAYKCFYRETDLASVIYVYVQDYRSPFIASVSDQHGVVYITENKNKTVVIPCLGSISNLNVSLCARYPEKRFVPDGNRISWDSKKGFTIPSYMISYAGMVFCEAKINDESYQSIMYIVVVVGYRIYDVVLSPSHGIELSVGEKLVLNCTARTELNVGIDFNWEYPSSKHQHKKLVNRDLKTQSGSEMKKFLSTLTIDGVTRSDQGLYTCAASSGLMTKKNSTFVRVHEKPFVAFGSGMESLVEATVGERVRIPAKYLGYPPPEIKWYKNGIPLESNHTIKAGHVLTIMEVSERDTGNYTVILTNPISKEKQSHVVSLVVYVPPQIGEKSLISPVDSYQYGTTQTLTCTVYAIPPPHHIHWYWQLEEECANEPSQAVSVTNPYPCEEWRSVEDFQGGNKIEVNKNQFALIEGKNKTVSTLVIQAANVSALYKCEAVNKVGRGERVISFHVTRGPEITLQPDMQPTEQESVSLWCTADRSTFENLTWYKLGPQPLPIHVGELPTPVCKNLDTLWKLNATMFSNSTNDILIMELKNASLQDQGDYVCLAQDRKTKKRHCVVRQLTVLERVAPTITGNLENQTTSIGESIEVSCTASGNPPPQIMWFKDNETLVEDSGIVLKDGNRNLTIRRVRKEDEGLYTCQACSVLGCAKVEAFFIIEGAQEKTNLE
Put plainly: radioactive equilibrium binding assay, 1 nM KDR-Fc, % of input bound. The method, then: (§1) To prepare ³⁵S-labeled binding proteins for analysis, mRNA was prepared as described above for RNA-protein fusion production but the linker ligation step was omitted. The mRNA was expressed using rabbit reticulocyte lysate translation kit (Ambion) in the presence of ³⁵S-labeled Met at 30° C. for 1 hour. Expressed protein was purified on M2-agarose Flag beads (Sigma) as described above. This procedure produced the encoded protein without the nucleic acid tail. In a direct binding assay, VEGF-R2-Fc fusions in concentrations ranging from 0 to 200 nM were added to a constant concentration of the purified protein (0.2 or 0.5 nM) and incubated at 30° C. for 1 hour in buffer B. The receptor-binder complexes were captured using Protein A magnetic beads for another 10 minutes at room temperature using a Kingfisher™ The beads were washed with six reaction volumes of buffer B. The protein was eluted from the beads with 100 μL of 0.1 M KOH. […] of the reaction mixture and elution were dried onto a LumaPlate-96 (Packard) and the amount of ³⁵S on the plate was measured using a TopCount NXT instrument (Packard). The amount of fibronectin-based scaffold protein bound to the target was estimated as a percent of radioactivity eluted from Protein A magnetic beads compare to radioactivity in the reaction mixture. Nonspecific binding of fibronectin-based scaffold proteins to the beads was determined by measuring binding in the absence of KDR-Fc and represented less than 1-2% of the input. Specific binding was obtained through subtraction of nonspecific binding from total binding. Data was analyzed using the GraphPad Prizm software (GraphPad Software, Inc, San Diego, Calif.), fitted using a one site, non-linear binding equation.
Consider B1, for which the “Binding to 1 nM KDR, %” value amounted to 27%.
On to B2, for which the “Binding to 1 nM KDR, %” value was 38%.
The same measure, in the same setting: to B3 belongs 24%; to B4, 29%.
On to B5, for which the “Binding to 1 nM KDR, %” value is 45%.
Same read-out and setting: to B6 belongs 36%; to B7, 36%; to B8, 24%.
In the case of B9, the “Binding to 1 nM KDR, %” value is 27%.
For B10, the “Binding to 1 nM KDR, %” value was 31%.
Same read-out and setting: the same measure for B11: 35%; for B12: 31%; for B13: 30%.
Turning to B14, the “Binding to 1 nM KDR, %” value was found to be 23%.
In the case of B15, the “Binding to 1 nM KDR, %” value turned out to be 38%.
On the same count and under the same terms, the same measure for B16: 53%; for B17: 32%; for B18: 28%.
For B19, the “Binding to 1 nM KDR, %” value amounted to 35%.
Same read-out and setting: to B20 belongs 40%.
The same measure, in the same setting: the same measure for B21: 33%; for B22: 24%.
Still for that read-out and setting: the same measure for B23: 39%; for B24: 51%.
As to B25, the “Binding to 1 nM KDR, %” value turned out to be 32%.
On the same count and under the same terms, the same measure for B26: 52%.
B27: the “Binding to 1 nM KDR, %” value turned out to be 36%.
Still for that read-out and setting: to B28 belongs 24%.
On the same count and under the same terms, to B29 belongs 18%; to B30, 19%; to B31, 32%.
Still for that read-out and setting: to B32 belongs 43%; to B33, 38%.
For the molecule B34, the “Binding to 1 nM KDR, %” value turned out to be 15%.
Still for that read-out and setting: the same measure for B35: 37%; for B36: 47%.
Regarding B37, the “Binding to 1 nM KDR, %” value is 46%.
Still for that read-out and setting: the same measure for B38: 33%.

The target of another assay is T2, mouse vascular endothelial growth factor receptor-2 Fc chimera (Flk-1-Fc) (mouse, UniProt P35918 20-762).
T2 construct: Bought from R&D Systems; also called mouse VEGFR-2; not shown: Fc part of the purchased chimera, not specified
T2 sequence (P35918 20-762, change not shown): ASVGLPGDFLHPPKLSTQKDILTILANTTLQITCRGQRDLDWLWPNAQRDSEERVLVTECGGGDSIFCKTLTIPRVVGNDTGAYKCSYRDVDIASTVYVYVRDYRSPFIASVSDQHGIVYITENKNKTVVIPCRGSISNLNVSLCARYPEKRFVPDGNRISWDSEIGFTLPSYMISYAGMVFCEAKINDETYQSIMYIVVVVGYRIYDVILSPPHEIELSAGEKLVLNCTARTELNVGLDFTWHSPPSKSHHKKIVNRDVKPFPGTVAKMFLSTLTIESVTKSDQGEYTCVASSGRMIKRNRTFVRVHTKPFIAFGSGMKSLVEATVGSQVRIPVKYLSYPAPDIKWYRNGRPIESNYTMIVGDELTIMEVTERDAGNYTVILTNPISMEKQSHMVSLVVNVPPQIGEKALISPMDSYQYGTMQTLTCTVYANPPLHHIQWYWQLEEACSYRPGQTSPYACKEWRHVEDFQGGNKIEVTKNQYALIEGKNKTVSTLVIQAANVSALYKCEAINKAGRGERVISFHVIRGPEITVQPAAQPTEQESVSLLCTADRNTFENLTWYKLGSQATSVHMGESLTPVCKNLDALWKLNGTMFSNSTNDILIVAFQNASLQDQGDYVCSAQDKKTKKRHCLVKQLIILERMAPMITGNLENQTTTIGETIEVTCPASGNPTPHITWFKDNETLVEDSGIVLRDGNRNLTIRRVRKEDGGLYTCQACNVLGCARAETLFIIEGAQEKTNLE
Put plainly: radioactive equilibrium binding assay, 1 nM Flk-1-Fc, % of input bound. The method, then:
as §1
As for B1, the “Binding to 1 nM Flk-1, %” value worked out at 24%.
The same measure, in the same setting: the same measure for B2: 38%; for B3: 3%.
Same read-out and setting: to B4 belongs 24%; to B5, 3%; to B6, 49%.
Still for that read-out and setting: to B7 belongs 30%; to B8, 20%; to B9, 44%.
Turning to B10, the “Binding to 1 nM Flk-1, %” value was 17%.
Same read-out and setting: the same measure for B11: 0%.
Still for that read-out and setting: the same measure for B12: 40%; for B13: 34%; for B14: 11%.
Same read-out and setting: to B15 belongs 23%; to B16, 3%; to B17, 10%.
Turning to B18, the “Binding to 1 nM Flk-1, %” value is 13%.
Still for that read-out and setting: to B19 belongs 30%; to B20, 16%.
Still for that read-out and setting: the same measure for B21: 7%; for B22: 29%; for B23: 27%.
For B24, the “Binding to 1 nM Flk-1, %” value was 10%.
Same read-out and setting: the same measure for B25: 30%; for B26: 2%; for B27: 1%.
Still for that read-out and setting: to B28 belongs 17%.
Same read-out and setting: the same measure for B29: 10%; for B30: 21%.
Consider B31, for which the “Binding to 1 nM Flk-1, %” value was 40%.
The same measure, in the same setting: the same measure for B32: 11%; for B33: 1%.
The same measure, in the same setting: to B34 belongs 23%.
Still for that read-out and setting: the same measure for B35: 9%; for B36: 1%.
Regarding B37, the “Binding to 1 nM Flk-1, %” value was 47%.
The same measure, in the same setting: the same measure for B38: 11%.
